Laboratory results from patent publication US8410115B2, “Methods of treating inflammatory and autoimmune diseases with alpha-4 inhibitory compounds” (Elan Pharmaceuticals, Inc., priority 2006, dated 2013).

Key:
[1] = molecular target: serotonin 5HT2(A) receptor (Homo sapiens, UniProt P28223); test: 5HT2(A) receptor antagonism in vitro
JCV [2] = conditions: one MS patient with PML after natalizumab plus AVONEX; cited from earlier work
MS patients [3] = conditions: 2-year Phase 3 MS trials; cited from earlier work
JCV [4] = conditions: in vitro; cited from earlier work
MS patients [5] = test: Safety of natalizumab in MS clinical trials (adverse events, deaths); format: in vivo, human
Description: Eighteen treatment-emergent deaths occurred in the entire natalizumab program. The adverse events encountered in the trials, both common and serious, were similar in natalizumab-treated patients and controls. Adverse events that led to discontinuation of natalizumab occurred in 5.8% of natalizumab-treated MS patients and in 4.8% of placebo-treated MS patients, with urticaria being the most common cause of discontinuation in the natalizumab-treated patients (1.2%).
Of the eighteen deaths that occurred during the clinical trials, five occurred in the placebo-controlled MS trials (including two in patients who had received natalizumab and three who had received placebo). The patients who received natalizumab died of alcohol intoxication and metastatic malignant melanoma. The patients who received placebo died of cardiac arrest, respiratory arrest, and pleural carcinomatosis with seizures. Four deaths occurred in the open-label MS trials, due to respiratory distress, PML, suicide, and seizure due to MS.
At least one serious adverse event was encountered by 251 of the 1,617 natalizumab-treated MS patients (15.5%) and by 214 of the 1,135 placebo-treated patients (18.9%) in the placebo-controlled trial. The most common serious adverse events, classified by organ systems, were nervous system disorders (5.9% natalizumab, 10.2% placebo). […] The second most common serious adverse events were infections and infestations (2.4% natalizumab, 2.2% placebo), with appendicitis and urinary tract infection (<1% in both groups) as the most common.

JCV [6] = test: Safety evaluation for PML / JCV in natalizumab-exposed clinical trial patients
Description: Clinical trial patients exposed to natalizumab were systematically assessed for evidence of incipient PML or any other opportunistic infection.
Criteria were established prospectively for the neuroradiologic evidence and laboratory assays for the diagnosis of PML. A diagnosis of “confirmed PML” was defined by presence of progressive clinical disease, MRI signs typical of PML, detection of JCV DNA in CSF, or pathologic confirmation. Sufficient evidence to exclude PML was defined as lack of progressive neurological disease, MRI lesions not typical of PML or stable over time, or no detectable JCV DNA in the CSF if the MRI was suspicious. A case was deemed “indeterminate” if there was clinical or MRI suspicion of PML and follow-up clinical, MRI, or CSF data could not be obtained.
Investigators were requested to perform the assessment procedure, including medical history, neurological examination, brain MRI, and CSF collection. Blood samples were also collected for PCR analysis of JCV DNA as an exploratory adjunct. MRI scans were assessed by Central Reader Centers with expertise in neurological disorders, including the two Central Reader Centers for the original Phase 3 MS studies. A consensus guideline was developed prospectively to standardize criteria to help distinguish MS white matter abnormalities from those of PML.

[7] = Natalizumab in combination with glatiramer acetate over six months; format: in vivo, human; conditions: 20 mg daily glatiramer acetate
Protocol: The safety of natalizumab in combination with glatiramer acetate was evaluated by administering natalizumab over six months to patients who continued to receive 20 mg of daily glatiramer acetate. […] However, this study was of insufficient size or duration to establish the long-term safety or efficacy in this population.

[8] = system: relapsing remitting MS patients; test: Phase 3 monotherapy study: natalizumab versus placebo for 120 weeks; format: in vivo, human
Protocol: (§1) As described in more detail in Example 1, two Phase 3 studies were conducted to study the effect of two years of treatment with natalizumab. One of the studies used natalizumab alone (the monotherapy study) and the other used natalizumab in combination with AVONEX® (the add-on therapy study). Both these Phase 3 studies were designed with two sets of primary and secondary endpoints. The primary and secondary endpoints were selected to measure the effects of natalizumab on the inflammatory aspects of the disease after a mean of one year of follow-up in each study (900 patient-years of observation in the monotherapy study; 1,200 patient-years in the add-on therapy study).
(§2) The primary endpoint of these studies was the annualized rate of clinical relapses. Two of the secondary endpoints were two supporting MRI measures of inflammatory disease activity, namely, the mean number of new or newly enlarging T2-hyperintense lesions (measuring lesion accumulation over time) and the mean number of Gd-enhancing lesions (measuring acute disease activity), as ranked in order of importance. The proportion of patients remaining relapse-free provided a third secondary endpoint.
(§3) Another series of endpoints was assessed at the conclusion of each study following two years of natalizumab treatment. The endpoints for this final analysis were selected to determine natalizumab's effects on measures associated with MS disease progression. The primary endpoint at two years was the time until onset of sustained progression of disability, as measured by changes in EDSS scores. Similar to the one-year analysis, the secondary endpoints were additional MRI and clinical measures that would support the primary analysis. The secondary endpoints at two years, ranked in order of importance, were the rate of MS relapses (to confirm one-year relapse observations), the mean volume of T2-hyperintense lesions (a measure of overall MS disease burden), the mean number of T1-hypointense lesions (a measure of axonal loss), and progression of disability as determined by changes in the MSFC (to confirm and expand upon disability effects as measured by the EDSS).
(§4) Given two primary endpoints at two different time points (annualized relapse rate at one year, time to disability progression at two years), the Hochberg procedure for multiple comparisons (Hochberg, Biometrika 75:800-802 (1988)) was used to evaluate the primary endpoint. Each set of secondary endpoints was prioritized in order of importance as listed above. A closed testing procedure was used for each set, such that if statistical significance was not achieved for an endpoint within a set, all endpoints(s) of a lower rank in that set were not considered statistically significant.
Both Phase 3 studies had similar designs. In the monotherapy study, 942 untreated relapsing remitting MS patients were randomized to receive natalizumab or placebo for 120 weeks (30 infusions) using a 2:1 allocation. In the add-on study, 1,171 patients who had been receiving weekly intramuscular injections of 30 μg AVONEX®, but who had relapsed despite this treatment, were randomized using a 1:1 allocation to add natalizumab or placebo to their regimen, also for 120 weeks.
Efficacy parameters included EDSS scores, MS relapses, brain MRI scans, MSFC scores, visual function tests, and quality of life. EDSS and MSFC were measured every 12 weeks, brain MRI scans and quality of life questionnaires at baseline and every year, and MS relapses on an ongoing basis.
The patient population in the two Phase 3 studies were relapsing MS patients according to the criteria of the International Panel on the Diagnosis of Multiple Sclerosis (McDonald et al., Ann. Neurol. 50:121-127 (2001)). It encompassed a broad range of ages and disease severity, and represented the current relapsing MS population with active disease, consistent with the approved indication. Patients with primary- or secondary-progressive MS were excluded. […]

[9] = Population pharmacokinetic analysis of natalizumab with concurrent AVONEX; format: in vivo, human
Protocol: In a placebo-controlled MS study, the administration of AVONEX® appeared to be associated with an increase in the serum concentrations of natalizumab in a small cohort on whom intensive pharmacokinetic sampling was performed. However, based upon a comparison of the mean post-hoc parameter estimates from the population pharmacokinetic analysis, steady-state clearance and half-life values differed between patients concurrently taking AVONEX® and natalizumab monotherapy, but only by approximately 5%, and were not considered clinically significant. […] It is notable that the two reports of PML in the MS database occurred in patients receiving concomitant AVONEX®. Thus, the risk of PML with natalizumab treatment may be increased by concomitant treatment with interferon β, though this could have occurred in two patients on combination therapy due to chance alone (p=0.23).

Crohn's Disease patients = test: Deaths in Crohn's Disease trials of natalizumab; format: in vivo, human; conditions: natalizumab-treated Crohn's Disease patients
Description: The exposure to natalizumab was approximately three-fold greater in these trials than exposure to placebo. The causes of death were acute myocardial infarction, acute renal failure, carbon dioxide asphyxiation, PML, pneumocystis carinii pneumonia, and bronchopulmonary aspergillosis.

[10] = system: rheumatoid arthritis patients; test: Deaths in rheumatoid arthritis trials of natalizumab; format: in vivo, human; conditions: natalizumab-treated rheumatoid arthritis patients
Description: Three deaths occurred in the rheumatoid arthritis trials, two in natalizumab-treated patients and one in a patient treated with a placebo. The natalizumab-treated patients died of hemoptysis with respiratory failure and end-stage rheumatoid pulmonary disease. The placebo-treated patient died of circulatory and respiratory insufficiency.

[11] = system: relapsing MS patients relapsing despite AVONEX; test: Phase 3 add-on therapy study: natalizumab added to AVONEX versus AVONEX plus placebo for 120 weeks; format: in vivo, human
Protocol: as §1, §2, §3, §4
The add-on therapy study was designed to evaluate the efficacy of natalizumab against active control for patients breaking through AVONEX® monotherapy. The choice of β-interferon was supported by available data on the proposed mechanisms of action of the available drugs. As discussed above, natalizumab has a well-defined mechanism of action, specifically targeting cellular adhesion and trans-endothelial migration via α4-integrins, as do the class of alpha-4 inhibitor compounds. Although the exact mechanism by which interferon-β exerts efficacy in MS is not known, interferon-β induces a large number of cellular processes involved in cytokine secretion and cellular phenotype changes. […]

[12] = mean post-hoc parameter estimates, population pharmacokinetic analysis

Chain of serotonin 5HT2(A) receptor (P28223 whole entry): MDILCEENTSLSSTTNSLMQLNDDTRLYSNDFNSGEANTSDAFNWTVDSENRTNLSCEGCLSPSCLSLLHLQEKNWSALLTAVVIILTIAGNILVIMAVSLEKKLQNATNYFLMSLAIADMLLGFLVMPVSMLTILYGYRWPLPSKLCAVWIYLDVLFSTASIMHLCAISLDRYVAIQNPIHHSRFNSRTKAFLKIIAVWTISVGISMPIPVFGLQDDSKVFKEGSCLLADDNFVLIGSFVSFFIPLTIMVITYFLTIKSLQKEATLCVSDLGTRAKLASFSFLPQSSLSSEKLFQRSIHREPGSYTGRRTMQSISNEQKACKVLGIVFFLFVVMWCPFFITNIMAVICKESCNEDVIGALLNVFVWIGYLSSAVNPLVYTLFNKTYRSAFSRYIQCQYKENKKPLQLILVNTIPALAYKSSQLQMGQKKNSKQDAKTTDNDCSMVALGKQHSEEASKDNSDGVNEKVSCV

For `O=C1Cc2cc(CCN3CCN(c4nsc5ccccc45)CC3)c(Cl)cc2N1` [zisprasidone], the “Potency as 5HT2(A) receptor antagonist relative to chlorpromazine and clozapine” value [1] was “significantly more potent”.

For `Nc1ccn(C[C@@H](CO)OCP(=O)(O)O)c(=O)n1` [Cidofovir, cidofovir], the “Clinical effect in PML” value (JCV [2]) is given as “without clinical effect”.

For glatiramer acetate, the “Subjects who experienced at least one relapse despite treatment” value (MS patients [3]) is given as 66%.

For `CN(C)CCCN1c2ccccc2Sc2ccc(Cl)cc21` [chlorpromazine], the “Block of JCV cell entry” value (JCV [4]) is given as “block”.

In the case of “natalizumab: humanized antibody against VLA-4; humanized IgG4κ monoclonal antibody directed against the α-4-subunit of alpha-4 integrins”, the Tolerability (MS patients [5]; 3,919 subjects in MS, Crohn's Disease and rheumatoid arthritis trials) was “generally well tolerated”, the Occurrence of malignancy (MS patients [5]; during natalizumab treatment, balanced with control groups) was “uncommon” and the “Incidence of hypersensitivity reactions” value (MS patients [5]; human, in vivo) was “approximately 4%”. The “Incidence of serious systemic hypersensitivity reactions” value (MS patients [5]; human, in vivo) was “less than 1%”, the “Adverse events that led to discontinuation” value (MS patients [5]; natalizumab-treated MS patients) was 5.8% and the “Discontinuation due to urticaria” value (MS patients [5]; natalizumab-treated patients, most common cause of discontinuation) was 1.2%. For the same molecule, the Deaths (MS patients [5]; open-label MS trials) was “Four”, the “Serious adverse events: MS relapse” value (MS patients [5]; placebo-controlled MS trial) was 4.7% and the “Serious adverse events: appendicitis and urinary tract infection” value (MS patients [5]; placebo-controlled MS trial) was less than 1%. The “Serious adverse events: infections and infestations” value (MS patients [5]; placebo-controlled MS trial) was 2.4%, the “Serious adverse events: nervous system disorders” value (MS patients [5]; placebo-controlled MS trial) was 5.9% and the “Patients with at least one serious adverse event” value (MS patients [5]; placebo-controlled MS trial, 251 of 1,617 patients) was 15.5%. The Deaths (MS patients [5]; placebo-controlled MS trials, patients who had received natalizumab) was “two”, the “Incidence of PML” value (JCV [6]; human, in vivo) was “approximately 1 /1,000” and the “Incidence of PML, 95% confidence interval” value (JCV [6]; human, in vivo) was 0.2-2.8 /1,000. The “JCV in CSF” value (JCV [6]; human, in vivo) was “not detected”, the “Confirmed cases of PML” value (JCV [6]; two MS patients, one Crohn's Disease patient, two fatal) was “Three” and the “Interaction between glatiramer acetate and natalizumab pharmacokinetics” value [7] was “no interactions”. The “Interaction between glatiramer acetate and natalizumab α4-integrin receptor saturation” value [7] was “no interactions”, the “Quality of life, physical and mental components of the SF-36” value ([8]; monotherapy versus placebo) was “improved” and the Annualized relapse rate ([8]; monotherapy, two years) was 0.235. For the same molecule, the “Hazard ratio (95% confidence interval) for sustained progression of disability” value ([8]; natalizumab versus placebo, two years) was 0.58 (0.43, 0.77), the “Percentage of patients with sustained progression of disability” value ([8]; two years, measured by EDSS, monotherapy) was 17% and the Patients remaining relapse-free ([8]; two years, monotherapy) was 67%. The “Risk reduction of disability progression” value ([8]; versus placebo, EDSS, two years) was 42%, the “Relative reduction in annualized relapse rate” value ([8]; versus placebo, two years) was 68% and the “Difference in half-life, concurrent AVONEX versus natalizumab monotherapy” value [9, 12] was “approximately 5%”. The “Difference in steady-state clearance, concurrent AVONEX versus natalizumab monotherapy” value [9, 12] was “approximately 5%”, the “Serum concentrations of natalizumab on administration of AVONEX” value ([9]; small cohort with intensive pharmacokinetic sampling, placebo-controlled MS study) was “increase” and the Deaths (Crohn's Disease patients) was “Six”. For the same molecule, the Deaths [10] was “two”, the “Tolerability in combination with AVONEX” value ([11]; 589 patients, up to 120 weeks) was “well tolerated” and the “Quality of life, physical components of the SF-36” value ([11]; compared to AVONEX therapy alone, trend on the mental component) was “improved”. The Patients relapse-free ([11]; two years, add-on to AVONEX) was 54%, the “Risk reduction of disability progression” value ([11]; versus AVONEX alone, EDSS, two years) was 24% and the “Relative reduction in annualized relapse rate” value ([11]; versus AVONEX, two years) was 55%.
